The labels stand for the following.
B1: CPEB3 Ribozyme (parent)
chain: GGGGGCCACAGCAGAAGCGUUCACGUCGCGGCCCCUGUCAGAUUCUGGUGAAUCUGCGAAUUCUGCUGU

In this data set the parent is B1. Put plainly: self-cleavage, relative activity (ratio to wild type); higher = more cleavage; co-transcriptional.
Regarding G4A C63U, the self-cleavage was found to be 0.84.
In the case of G3U A60C it was 0.0666; in that of G3U A60G, 0.0646; in that of G3U A60U, 0.0237.
The value for G3U C33U was 0.0906; that for G3U C33A was 0.102; that for G3U A8G was 0.0722.
The value for G3U A8C was 0.146; that for G3U A8U was 0.121.
For the variant G3U C22G, the self-cleavage amounted to 0.0464.
The value for G3U C22U was 0.047.
In the case of G3U C22A it was 0.051.
Take G4C A23C: the self-cleavage turned out to be 0.432.
The value for G4C A23G was 0.349; that for G4A A13C was 0.588.
In the case of G4A A13U it was 0.66.
As to G4A U67A, the self-cleavage amounted to 0.92.
As to G4A U67G, the self-cleavage was 0.918.
The value for G4A U67C was 0.986; that for G4A U49C was 0.916; that for G4A U49G was 0.728.
Take G3U G30U: the self-cleavage was 0.0357.
For the variant G3U G30C, the self-cleavage turned out to be 0.0267.
Turning to G3U G30A, the self-cleavage is 0.0662.
For the variant G4C C39A, the self-cleavage is 0.223.
The value for G4C C39U was 0.261.
In the case of G3U A10U it was 0.424.
In the case of G3U A10C, the self-cleavage turned out to be 0.332.
As to G4A C29U, the self-cleavage was 0.216.
As to G4A C29G, the self-cleavage was determined as 0.103.
The value for G3U A59U was 0.0422; that for G3U A59C was 0.0549.
The value for G4A G50A was 0.839; that for G4A G50C was 0.808.
With G4A G50U, the self-cleavage came to 0.849.
The value for G4A A15U was 0.455; that for G4A A15C was 0.329; that for G4A A15G was 0.93.
G4A C27A: the self-cleavage worked out at 0.212.
G4A C27U: the self-cleavage was determined as 0.19.
In the case of G3C U64C it was 0.0655.
The value for G3C U64A was 0.0618; that for G4A A59G was 0.749; that for G4A A59C was 0.32.
The value for G4A A59U was 0.283.
Take G3U: the self-cleavage was 0.195.
The value for G3U G65A was 0.171; that for G3U G65C was 0.0613; that for G4A G56U was 0.744.
As for G4A G56C, the self-cleavage was 0.456.
In the case of G4C G5C it was 0.212; in that of G4A A23U, 0.886.
For the variant G4A A23G, the self-cleavage turned out to be 0.827.
In the case of G3U G47C, the self-cleavage was found to be 0.177.
In the case of G3U G47U it was 0.175.
In the case of G4A G14C it was 0.305.
On to G4A G14U, for which the self-cleavage amounted to 0.519.
The value for G3U U21C was 0.0376.
The value for G3U U21G was 0.0385.
For the variant G3U U21A, the self-cleavage turned out to be 0.157.
Regarding G4A G11A, the self-cleavage was found to be 0.672.
Take G4A G11U: the self-cleavage amounted to 0.629.
The value for G4A G11C was 0.631; that for G3U C32U was 0.0936; that for G4A U44C was 0.679.
In the case of G4A U44A it was 0.646.
The value for G4A U44G was 0.558.
As for G4A G25A, the self-cleavage stood at 0.117.
Take G4A G25U: the self-cleavage was 0.0834.
In the case of G4A G58U it was 0.9; in that of G4A G58A, 0.683.
As to G4A U46C, the self-cleavage amounted to 0.828.
G3U G14C: the self-cleavage worked out at 0.0411.
Consider G3U G14U, for which the self-cleavage turned out to be 0.0458.
In the case of G3U A23G it was 0.0915.
As to G3U U44C, the self-cleavage came out at 0.127.
Consider G3U U44G, for which the self-cleavage was 0.115.
G3U U44A: the self-cleavage was 0.0987.
With G3U C54U, the self-cleavage stood at 0.148.
In the case of G3U C54G, the self-cleavage is 0.0746.
The value for G3U C54A was 0.0729; that for G3U G31A was 0.074; that for G3U G31U was 0.0468.
In the case of G4C C45A it was 0.419.
With G4C C45U, the self-cleavage is 0.733.
As for G4C C45G, the self-cleavage is 0.477.
In the case of G3U G48A it was 0.245.
In the case of G4A G19U it was 0.178; in that of G4A G19C, 0.11.
Take G3U U62A: the self-cleavage was 0.0711.
On to G3U U62G, for which the self-cleavage is 0.108.
The value for G4A C39A was 0.521.
The value for G4A C39U was 0.544.
In the case of G3U G68A it was 0.554; in that of G3U C45U, 0.162; in that of G4C A42U, 0.354.
With G4C A42C, the self-cleavage is 0.237.
Turning to G3C U67A, the self-cleavage worked out at 0.239.
For the variant G3C U67G, the self-cleavage came out at 0.219.
The value for G4A A10C was 0.968; that for G4A A10G was 0.868.
For the variant G4A U38A, the self-cleavage amounted to 0.761.
In the case of G4A U38G it was 0.107; in that of G4C C22A, 0.0918.
G4A A40C: the self-cleavage turned out to be 0.216.
Turning to G3C U49G, the self-cleavage was 0.039.
The value for G3C U49C was 0.149.
The value for G3U A51C was 0.105; that for G3U A51U was 0.17; that for G4A U55G was 0.52.
In the case of G3U U55C it was 0.104.
G3U G19A: the self-cleavage worked out at 0.0413.
In the case of G3U G19U it was 0.0853.
As for G3U U26G, the self-cleavage turned out to be 0.0677.
For the variant G3U U26C, the self-cleavage is 0.107.
With G3C U53C, the self-cleavage was 0.0464.
As to G3C U53G, the self-cleavage amounted to 0.0664.
In the case of G4A C34U it was 0.627; in that of G4A C34A, 0.31.
In the case of G3U G25C it was 0.0349; in that of G3U C66U, 0.151; in that of G3U C66G, 0.145.
The value for G4A A8C was 0.897; that for G4A A8U was 0.86.
Consider G4A A8G, for which the self-cleavage was 0.698.
In the case of G4C A52G it was 0.53; in that of G4C A52C, 0.38; in that of G3U A15G, 0.141.
In the case of G3U A15U, the self-cleavage is 0.0782.
As to G3U A15C, the self-cleavage worked out at 0.0817.
For the variant G4C A59U, the self-cleavage came out at 0.203.
As for G4C A59G, the self-cleavage is 0.37.
Regarding G3U U53C, the self-cleavage came to 0.0626.
The value for G3U U53A was 0.112; that for G4A C7U was 0.458; that for G4A C7A was 0.0893.
In the case of G4C C35G it was 0.0833.
The value for G4C C35A was 0.0948.
Turning to G3U C29U, the self-cleavage stood at 0.0459.
On to G4A G48A, for which the self-cleavage turned out to be 0.92.
In the case of G4A G68U it was 0.978.
The value for G4A C54G was 0.388.
In the case of G3U G17C it was 0.0675; in that of G3U G17U, 0.0304.
Turning to G3U C35A, the self-cleavage came to 0.0237.
The value for G3U C35G was 0.0418; that for G4A G5C was 0.113; that for G4A G5A was 0.103.
Turning to G4C C57A, the self-cleavage was found to be 0.136.
Regarding G3U U20A, the self-cleavage came to 0.0443.
In the case of G3U C63U it was 0.114; in that of G3U A40U, 0.0917.
The value for G3U A40G was 0.0981; that for G4A G30A was 0.294; that for G4A G30C was 0.188.
The value for G4A G30U was 0.0939.
Take G3U G11C: the self-cleavage worked out at 0.0634.
The value for G4C A13U was 0.302; that for G4C A13G was 0.472; that for G4A U61A was 0.477.
Consider G4A U61G, for which the self-cleavage is 0.508.
The value for G3U G4A was 0.0885; that for G3U G4C was 0.0209.
In the case of G4A G41A it was 0.506; in that of G4A A51U, 0.804.
Regarding G4C C7A, the self-cleavage was 0.0992.
Take G4C C7U: the self-cleavage is 0.129.

The record behind these values is the RNAGym collection of RNA variant scans (doi:10.7554/elife.80360).
